Results reported in CN109485724A (FUZHOU MAIXIN BIOTECHNOLOGY DEV CO LTD, dated 2019).

Target: T1, 重组Desmin蛋白 (人Desmin α螺旋杆状区第109位至第412位氨基酸片段 + 组氨酸标签, 大肠杆菌表达) (human, UniProt P17661 109-412)
T1 construct: range 109-412; Expressed in E. coli Rosetta from pET-28a(+) (EcoRI/HindIII), solubilised from inclusion bodies in 8 M urea and purified on Ni-NTA; also called 重组Desmin蛋白片段; 免疫原; not shown: histidine tag from vector pET28a(+)
Assay: indirect ELISA on coated recombinant Desmin; affinity constant calculated from the antibody concentration at half of the plateau OD450

T1 sequence (P17661 109-412): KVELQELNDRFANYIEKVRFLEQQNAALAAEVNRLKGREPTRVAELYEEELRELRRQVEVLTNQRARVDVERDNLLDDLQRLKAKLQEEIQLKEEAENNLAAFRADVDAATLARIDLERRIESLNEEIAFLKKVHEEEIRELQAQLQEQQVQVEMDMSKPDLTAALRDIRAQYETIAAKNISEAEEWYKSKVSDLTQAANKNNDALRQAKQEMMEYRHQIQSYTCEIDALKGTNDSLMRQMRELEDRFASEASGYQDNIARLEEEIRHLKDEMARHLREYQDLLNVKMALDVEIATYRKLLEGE

Ka: 6.82e+09 M⁻¹
B1: 抗Desmin蛋白单克隆抗体(14G1C12) (antibody, V domains shown)
VH: QIQLVQSGPELKKPGETVKISCKASGYTFTNYGMNWVKQAPGKGLKWMGWINTNTGEPTYAEEFKGRFAFSLETSASTAYLQINNLKNEDTATYFCAREFSSWGQGTLVTVSA
VL: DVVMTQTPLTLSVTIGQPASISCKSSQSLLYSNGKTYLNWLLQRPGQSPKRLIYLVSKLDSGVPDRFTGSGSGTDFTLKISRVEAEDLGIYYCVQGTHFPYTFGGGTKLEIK
notes: also called Desmin单克隆抗体; 14G1C12的Desmin
